Data taken from the supplement of paper PMC10065799, “High-throughput profiling of sequence recognition by tyrosine kinases and SH2 domains using bacterial peptide display” (eLife, 2023).
Blank lines part the entries; values can stand above or below the sequence they belong to.

Columns and labels:
FGFR1 = FGFR1 (UniProt P11362); experiment: phosphorylation enrichment, bacterial display (enrichment ratio); higher = better substrate or ligand; peptides without Tyr show the background
FGFR3 = FGFR3 (UniProt P22607); experiment: as above
EPHB1 = EPHB1 (UniProt P54762); experiment: as above
c-Abl (mouse) = experiment: as above
Fer (mouse) = experiment: as above
MERTK = MERTK (UniProt Q12866); experiment: as above
AncSZ = experiment: as above
Hck = Hck (UniProt P08631); experiment: as above
EPHB2 = EPHB2 (UniProt P29323); experiment: as above
Fyn = Fyn (UniProt P06241); experiment: as above
c-Src = experiment: as above
Jak2 = Jak2 (UniProt O60674); experiment: as above
Fes = Fes (UniProt P07332); experiment: as above
Grb2 SH2 = Grb2 SH2 (UniProt P62993); experiment: SH2 binding enrichment of the phosphorylated peptide, bacterial display (enrichment ratio); higher = better substrate or ligand; peptides without Tyr show the background
c-Src SH2 = experiment: as above
SHP2-C SH2 = experiment: as above
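For SH2 binding enrichment of the phosphorylated peptide, bacterial display in this document: peptide library displayed on the E. coli surface as eCPX fusions, selected cells deep-sequenced, score is each peptide's frequency after selection divided by its frequency in the input.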
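For phosphorylation enrichment, bacterial display in this document: 11-residue human phosphosite peptides and single-mutation variants displayed on the E. coli surface, counted by deep sequencing, each peptide's frequency after selection divided by its frequency in the unselected input library; frequency after pTyr selection over input frequency; kinase dosed for 20-30% of maximal phosphorylation in three min.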

Chain of EPHB2 (P29323 whole entry, looked up): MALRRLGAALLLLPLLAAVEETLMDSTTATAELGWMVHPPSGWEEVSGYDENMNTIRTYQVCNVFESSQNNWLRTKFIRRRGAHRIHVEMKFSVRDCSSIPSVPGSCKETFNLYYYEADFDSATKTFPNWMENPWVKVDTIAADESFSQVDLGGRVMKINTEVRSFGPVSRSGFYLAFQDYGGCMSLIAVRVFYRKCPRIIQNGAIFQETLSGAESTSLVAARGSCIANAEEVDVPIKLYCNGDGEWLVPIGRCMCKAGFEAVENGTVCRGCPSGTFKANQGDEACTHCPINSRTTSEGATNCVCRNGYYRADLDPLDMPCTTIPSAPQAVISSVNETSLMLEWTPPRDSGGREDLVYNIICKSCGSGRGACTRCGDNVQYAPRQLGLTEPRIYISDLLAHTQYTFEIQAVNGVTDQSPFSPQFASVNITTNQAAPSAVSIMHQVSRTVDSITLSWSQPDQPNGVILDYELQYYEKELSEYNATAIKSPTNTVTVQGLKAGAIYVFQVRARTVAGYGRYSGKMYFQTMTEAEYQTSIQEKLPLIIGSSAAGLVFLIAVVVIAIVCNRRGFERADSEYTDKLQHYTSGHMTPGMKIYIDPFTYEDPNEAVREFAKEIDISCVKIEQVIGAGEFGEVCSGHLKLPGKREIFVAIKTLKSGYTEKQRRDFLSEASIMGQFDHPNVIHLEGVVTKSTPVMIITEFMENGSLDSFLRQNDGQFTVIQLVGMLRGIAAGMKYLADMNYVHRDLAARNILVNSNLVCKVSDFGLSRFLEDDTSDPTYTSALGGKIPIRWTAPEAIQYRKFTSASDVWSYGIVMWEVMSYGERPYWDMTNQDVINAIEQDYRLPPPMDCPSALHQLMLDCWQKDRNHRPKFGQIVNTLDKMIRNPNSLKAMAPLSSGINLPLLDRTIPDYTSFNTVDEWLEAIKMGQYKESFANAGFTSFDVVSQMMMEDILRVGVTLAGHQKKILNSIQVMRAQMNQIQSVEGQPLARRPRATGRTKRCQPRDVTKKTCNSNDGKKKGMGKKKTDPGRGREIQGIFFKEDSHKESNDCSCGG
Chain of Hck (P08631 whole entry, looked up): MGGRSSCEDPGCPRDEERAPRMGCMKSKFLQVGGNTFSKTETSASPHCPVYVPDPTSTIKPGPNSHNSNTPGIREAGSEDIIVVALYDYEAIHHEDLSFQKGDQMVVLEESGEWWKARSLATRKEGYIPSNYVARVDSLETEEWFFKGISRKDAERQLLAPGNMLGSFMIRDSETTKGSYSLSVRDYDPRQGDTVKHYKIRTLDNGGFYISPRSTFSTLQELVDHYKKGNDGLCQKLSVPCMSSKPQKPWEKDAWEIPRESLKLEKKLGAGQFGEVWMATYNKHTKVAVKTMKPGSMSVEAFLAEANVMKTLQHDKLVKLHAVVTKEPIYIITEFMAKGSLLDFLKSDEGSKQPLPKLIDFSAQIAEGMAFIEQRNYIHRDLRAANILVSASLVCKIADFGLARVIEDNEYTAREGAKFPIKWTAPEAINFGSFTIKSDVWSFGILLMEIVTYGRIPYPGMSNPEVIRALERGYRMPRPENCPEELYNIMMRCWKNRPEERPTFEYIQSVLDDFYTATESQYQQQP
Chain of EPHB1 (P54762 whole entry, looked up): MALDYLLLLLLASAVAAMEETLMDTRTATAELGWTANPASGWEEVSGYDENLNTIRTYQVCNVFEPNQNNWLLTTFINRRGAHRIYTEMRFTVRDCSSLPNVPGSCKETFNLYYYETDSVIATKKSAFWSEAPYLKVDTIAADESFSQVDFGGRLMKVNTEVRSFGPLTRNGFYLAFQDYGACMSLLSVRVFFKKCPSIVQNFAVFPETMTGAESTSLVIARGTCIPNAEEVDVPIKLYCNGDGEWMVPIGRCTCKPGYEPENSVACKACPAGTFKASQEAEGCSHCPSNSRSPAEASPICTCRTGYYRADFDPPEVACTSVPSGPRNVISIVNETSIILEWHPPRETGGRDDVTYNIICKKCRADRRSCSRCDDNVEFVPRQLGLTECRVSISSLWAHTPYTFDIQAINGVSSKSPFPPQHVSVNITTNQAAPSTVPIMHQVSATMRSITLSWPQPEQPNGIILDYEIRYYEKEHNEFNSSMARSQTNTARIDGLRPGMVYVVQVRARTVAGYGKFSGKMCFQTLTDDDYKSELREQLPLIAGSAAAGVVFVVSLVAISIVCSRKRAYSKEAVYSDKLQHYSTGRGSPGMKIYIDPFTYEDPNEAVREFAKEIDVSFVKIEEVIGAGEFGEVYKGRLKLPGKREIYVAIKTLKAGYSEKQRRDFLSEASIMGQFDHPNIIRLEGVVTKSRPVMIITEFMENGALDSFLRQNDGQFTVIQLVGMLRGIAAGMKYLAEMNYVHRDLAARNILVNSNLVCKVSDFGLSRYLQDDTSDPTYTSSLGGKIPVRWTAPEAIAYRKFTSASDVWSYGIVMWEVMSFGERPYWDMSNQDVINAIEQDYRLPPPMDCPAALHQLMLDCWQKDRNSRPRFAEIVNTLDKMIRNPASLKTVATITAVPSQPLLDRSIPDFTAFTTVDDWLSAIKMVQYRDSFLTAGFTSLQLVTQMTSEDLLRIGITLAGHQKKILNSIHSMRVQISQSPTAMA
Chain of MERTK (Q12866 whole entry, looked up): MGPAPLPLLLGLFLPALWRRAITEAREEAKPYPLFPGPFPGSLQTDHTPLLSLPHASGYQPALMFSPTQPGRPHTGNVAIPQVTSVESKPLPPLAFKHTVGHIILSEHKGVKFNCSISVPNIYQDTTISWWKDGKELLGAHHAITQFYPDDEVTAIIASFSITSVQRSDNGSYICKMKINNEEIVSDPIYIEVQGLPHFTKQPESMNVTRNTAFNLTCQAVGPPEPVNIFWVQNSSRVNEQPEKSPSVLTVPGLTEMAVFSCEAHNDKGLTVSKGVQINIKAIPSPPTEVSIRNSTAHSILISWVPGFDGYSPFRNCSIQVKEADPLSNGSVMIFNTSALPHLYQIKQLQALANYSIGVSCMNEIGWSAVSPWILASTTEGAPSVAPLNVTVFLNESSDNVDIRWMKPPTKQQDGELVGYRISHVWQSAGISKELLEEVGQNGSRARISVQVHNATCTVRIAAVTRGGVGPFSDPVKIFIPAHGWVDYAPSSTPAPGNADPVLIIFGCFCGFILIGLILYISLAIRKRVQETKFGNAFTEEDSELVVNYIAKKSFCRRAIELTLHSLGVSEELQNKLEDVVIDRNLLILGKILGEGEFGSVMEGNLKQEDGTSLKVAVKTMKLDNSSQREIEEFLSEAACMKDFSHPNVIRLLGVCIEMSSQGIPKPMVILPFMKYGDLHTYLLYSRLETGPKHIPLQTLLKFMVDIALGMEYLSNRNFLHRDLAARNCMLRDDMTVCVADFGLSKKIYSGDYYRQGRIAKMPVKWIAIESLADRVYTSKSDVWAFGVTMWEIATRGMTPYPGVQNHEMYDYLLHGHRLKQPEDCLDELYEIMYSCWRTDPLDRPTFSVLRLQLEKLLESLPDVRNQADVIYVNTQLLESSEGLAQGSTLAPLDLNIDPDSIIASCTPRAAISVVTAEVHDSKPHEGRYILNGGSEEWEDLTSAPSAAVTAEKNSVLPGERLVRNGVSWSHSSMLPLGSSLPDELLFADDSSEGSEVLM
Chain of Fyn (P06241 whole entry, looked up): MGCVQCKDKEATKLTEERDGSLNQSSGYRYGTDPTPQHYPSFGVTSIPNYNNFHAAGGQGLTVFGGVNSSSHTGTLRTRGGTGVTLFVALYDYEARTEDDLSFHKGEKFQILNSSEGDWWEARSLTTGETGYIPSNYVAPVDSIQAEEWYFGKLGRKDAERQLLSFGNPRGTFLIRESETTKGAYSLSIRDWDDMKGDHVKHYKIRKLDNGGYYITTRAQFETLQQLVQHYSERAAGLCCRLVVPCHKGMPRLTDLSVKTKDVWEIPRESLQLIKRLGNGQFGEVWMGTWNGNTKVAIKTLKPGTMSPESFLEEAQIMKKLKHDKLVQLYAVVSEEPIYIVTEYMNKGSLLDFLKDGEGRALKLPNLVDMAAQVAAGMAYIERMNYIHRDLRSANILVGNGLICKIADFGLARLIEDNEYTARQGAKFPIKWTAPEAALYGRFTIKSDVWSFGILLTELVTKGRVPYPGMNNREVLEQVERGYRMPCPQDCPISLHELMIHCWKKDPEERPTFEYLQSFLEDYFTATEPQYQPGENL
Chain of Fes (P07332 whole entry, looked up): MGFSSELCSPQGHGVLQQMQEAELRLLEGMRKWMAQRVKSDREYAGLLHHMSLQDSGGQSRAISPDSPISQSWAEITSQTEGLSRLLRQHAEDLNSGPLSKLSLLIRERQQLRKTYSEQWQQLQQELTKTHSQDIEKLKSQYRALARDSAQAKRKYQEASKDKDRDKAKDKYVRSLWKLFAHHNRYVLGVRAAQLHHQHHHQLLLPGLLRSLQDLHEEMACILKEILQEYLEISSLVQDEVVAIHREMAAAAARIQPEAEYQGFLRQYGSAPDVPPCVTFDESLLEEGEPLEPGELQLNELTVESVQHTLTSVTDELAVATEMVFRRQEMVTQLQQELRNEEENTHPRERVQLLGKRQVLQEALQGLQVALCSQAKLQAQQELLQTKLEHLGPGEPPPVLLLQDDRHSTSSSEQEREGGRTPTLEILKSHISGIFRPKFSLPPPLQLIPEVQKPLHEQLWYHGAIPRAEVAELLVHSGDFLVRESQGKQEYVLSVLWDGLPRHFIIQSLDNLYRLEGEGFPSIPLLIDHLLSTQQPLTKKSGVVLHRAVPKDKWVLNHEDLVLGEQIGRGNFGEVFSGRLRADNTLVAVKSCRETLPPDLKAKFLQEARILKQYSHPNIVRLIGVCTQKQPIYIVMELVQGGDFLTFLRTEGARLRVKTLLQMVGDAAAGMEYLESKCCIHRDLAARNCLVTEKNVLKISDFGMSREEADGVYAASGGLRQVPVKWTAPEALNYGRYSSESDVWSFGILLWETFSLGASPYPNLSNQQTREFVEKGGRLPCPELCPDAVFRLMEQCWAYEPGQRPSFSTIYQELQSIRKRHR

SH2 binding enrichment (Grb2 SH2): 0.878
SH2 binding enrichment (c-Src SH2): 0.435
SH2 binding enrichment (SHP2-C SH2): 0.565
Sequence: YHLGKYLQEVL [KLB_Y910_Y906H]
phosphorylation enrichment (FGFR1): 0.527
phosphorylation enrichment (FGFR3): 0.739
phosphorylation enrichment (EPHB1): 0.481
phosphorylation enrichment (c-Abl (mouse)): 0.685
phosphorylation enrichment (Fer (mouse)): 0.452
phosphorylation enrichment (MERTK): 0.383
phosphorylation enrichment (AncSZ): 1.18
phosphorylation enrichment (Hck): 0.498
phosphorylation enrichment (EPHB2): 0.724
phosphorylation enrichment (Fyn): 0.524
phosphorylation enrichment (c-Src): 0.298
phosphorylation enrichment (Jak2): 0.87
phosphorylation enrichment (Fes): 1.1

SH2 binding enrichment (Grb2 SH2): 0.8
SH2 binding enrichment (c-Src SH2): 1.93
SH2 binding enrichment (SHP2-C SH2): 0.652
Sequence: PLKYLYPNIDR [STAT1_Y668_K673R]
phosphorylation enrichment (FGFR1): 0.606
phosphorylation enrichment (FGFR3): 0.58
phosphorylation enrichment (EPHB1): 0.579
phosphorylation enrichment (c-Abl (mouse)): 1.09
phosphorylation enrichment (Fer (mouse)): 0.773
phosphorylation enrichment (MERTK): 0.435
phosphorylation enrichment (AncSZ): 1.23
phosphorylation enrichment (Hck): 0.501
phosphorylation enrichment (EPHB2): 0.819
phosphorylation enrichment (Fyn): 0.313
phosphorylation enrichment (c-Src): 0.684
phosphorylation enrichment (Jak2): 0.859
phosphorylation enrichment (Fes): 1.38

SH2 binding enrichment (Grb2 SH2): 1
SH2 binding enrichment (c-Src SH2): 0.695
SH2 binding enrichment (SHP2-C SH2): 0.893
Sequence: VRSNHYAPEED [TJP1_Y1346_D1347A]
phosphorylation enrichment (FGFR1): 0.426
phosphorylation enrichment (FGFR3): 0.605
phosphorylation enrichment (EPHB1): 0.529
phosphorylation enrichment (c-Abl (mouse)): 0.728
phosphorylation enrichment (Fer (mouse)): 0.469
phosphorylation enrichment (MERTK): 0.462
phosphorylation enrichment (AncSZ): 0.941
phosphorylation enrichment (Hck): 0.498
phosphorylation enrichment (EPHB2): 0.611
phosphorylation enrichment (Fyn): 0.473
phosphorylation enrichment (c-Src): 0.434
phosphorylation enrichment (Jak2): 0.955
phosphorylation enrichment (Fes): 0.984

SH2 binding enrichment (Grb2 SH2): 1.01
SH2 binding enrichment (c-Src SH2): 5.88
SH2 binding enrichment (SHP2-C SH2): 0.854
Sequence: YPRTGYSVPYG [TGM1_Y370_L366P]
phosphorylation enrichment (FGFR1): 0.525
phosphorylation enrichment (FGFR3): 0.545
phosphorylation enrichment (EPHB1): 0.418
phosphorylation enrichment (c-Abl (mouse)): 0.681
phosphorylation enrichment (Fer (mouse)): 0.383
phosphorylation enrichment (MERTK): 0.55
phosphorylation enrichment (AncSZ): 0.714
phosphorylation enrichment (Hck): 0.453
phosphorylation enrichment (EPHB2): 0.519
phosphorylation enrichment (Fyn): 0.459
phosphorylation enrichment (c-Src): 0.406
phosphorylation enrichment (Jak2): 0.925
phosphorylation enrichment (Fes): 0.78

The remaining lines, values behind:

Sequence: YEEDPYLVVNP [MCM6_Y810]
phosphorylation enrichment (FGFR1): 1.52
phosphorylation enrichment (FGFR3): 1.52
phosphorylation enrichment (EPHB1): 0.648
phosphorylation enrichment (c-Abl (mouse)): 0.861
phosphorylation enrichment (Fer (mouse)): 0.825
phosphorylation enrichment (MERTK): 0.605
phosphorylation enrichment (AncSZ): 1.79
phosphorylation enrichment (Hck): 1.06
phosphorylation enrichment (EPHB2): 0.56
phosphorylation enrichment (Fyn): 1.99
phosphorylation enrichment (c-Src): 2.48
phosphorylation enrichment (Jak2): 1.37
phosphorylation enrichment (Fes): 1.37
SH2 binding enrichment (Grb2 SH2): 1.2
SH2 binding enrichment (c-Src SH2): 3.48
SH2 binding enrichment (SHP2-C SH2): 0.855

Sequence: WFPFTYVEEDE [VAV3_Y842_S840Y_YF]
phosphorylation enrichment (FGFR1): 0.52
phosphorylation enrichment (FGFR3): 0.692
phosphorylation enrichment (EPHB1): 0.702
phosphorylation enrichment (c-Abl (mouse)): 0.655
phosphorylation enrichment (Fer (mouse)): 0.547
phosphorylation enrichment (MERTK): 0.453
phosphorylation enrichment (AncSZ): 1.19
phosphorylation enrichment (Hck): 0.437
phosphorylation enrichment (EPHB2): 0.473
phosphorylation enrichment (Fyn): 0.516
phosphorylation enrichment (c-Src): 0.521
phosphorylation enrichment (Jak2): 1.1
phosphorylation enrichment (Fes): 1.11
SH2 binding enrichment (Grb2 SH2): 1.48
SH2 binding enrichment (c-Src SH2): 1.23
SH2 binding enrichment (SHP2-C SH2): 1.48

Sequence: GRSTYYWPSPR [GAGE12J_Y10_R13S]
phosphorylation enrichment (FGFR1): 7.32
phosphorylation enrichment (FGFR3): 5.22
phosphorylation enrichment (EPHB1): 10.5
phosphorylation enrichment (c-Abl (mouse)): 6.32
phosphorylation enrichment (Fer (mouse)): 1.44
phosphorylation enrichment (MERTK): 17
phosphorylation enrichment (AncSZ): 1.78
phosphorylation enrichment (Hck): 7.41
phosphorylation enrichment (EPHB2): 11.1
phosphorylation enrichment (Fyn): 6.75
phosphorylation enrichment (c-Src): 7.28
phosphorylation enrichment (Jak2): 7.45
phosphorylation enrichment (Fes): 0.796
SH2 binding enrichment (Grb2 SH2): 1.12
SH2 binding enrichment (c-Src SH2): 0.898
SH2 binding enrichment (SHP2-C SH2): 0.923

Sequence: GRMLQYLTVND [PPFIBP2_Y663_R658G]
phosphorylation enrichment (FGFR1): 0.51
phosphorylation enrichment (FGFR3): 0.575
phosphorylation enrichment (EPHB1): 0.52
phosphorylation enrichment (c-Abl (mouse)): 0.593
phosphorylation enrichment (Fer (mouse)): 0.42
phosphorylation enrichment (MERTK): 0.319
phosphorylation enrichment (AncSZ): 0.792
phosphorylation enrichment (Hck): 0.489
phosphorylation enrichment (EPHB2): 0.477
phosphorylation enrichment (Fyn): 0.401
phosphorylation enrichment (c-Src): 0.436
phosphorylation enrichment (Jak2): 0.811
phosphorylation enrichment (Fes): 0.97
SH2 binding enrichment (Grb2 SH2): 0.99
SH2 binding enrichment (c-Src SH2): 0.598
SH2 binding enrichment (SHP2-C SH2): 0.998
